Target: T1, mouse DR5 (Mus musculus (4T1: BALB/c; MC38: …, UniProt Q9QZM4)
T1 construct: mouse DR5, endogenous on the surface of 4T1 and MC38 cells; also called muDR5; murine DR5; source: endogenous, on murine 4T1 and MC38 cells
Test: flow cytometry on cells; antibody on murine 4T1 and MC38 cells, FACS histograms
Settings: one partner purified

T1 sequence (Q9QZM4 53-381): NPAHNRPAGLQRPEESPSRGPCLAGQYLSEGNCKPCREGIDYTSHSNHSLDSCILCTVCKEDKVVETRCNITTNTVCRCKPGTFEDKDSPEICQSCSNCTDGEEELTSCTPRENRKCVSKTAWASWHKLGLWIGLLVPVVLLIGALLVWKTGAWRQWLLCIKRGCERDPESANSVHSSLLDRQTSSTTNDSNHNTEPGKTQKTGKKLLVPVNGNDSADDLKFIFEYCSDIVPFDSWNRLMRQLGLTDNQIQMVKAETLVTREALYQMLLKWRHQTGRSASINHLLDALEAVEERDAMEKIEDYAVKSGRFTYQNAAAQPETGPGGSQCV

binding result: binds
B1: MD5‐1 (antibody, V domains shown)
VH: QIQLQESGPGLVKPAQSLSLTCSITGFPITAGGYWWTWIRQFPGQKLEWMGYIYSSGSTNYNPSIKSRISITRDTAKNQFFLQLNSVTTEEDTAIYYCARAGTSYSGFFDSWGQGTLVTVSS
VL: DIQVTQSPSLLSASFGDKVTINCLVTQDITYYLSWYQQKSGQPPTLLIYNGNSLQSGVPSRFSGQYSGRTFTLSLSSLEPEDAGTYYCLQHYSVPFTFGGGTRLEIK
notes: heavy chain of MD5‐1; light chain of MD5‐1; for efficacy studies it is said to carry IgG1 KO‐Fc and S267E mutations; also called anti‐mouse DR5 antibody (MD5‐1); murine DR5 agonist MD5‐1
